# Measured values taken from patent publication US20240218057A1 (ROCKEFELLER UNIVERSITY, published 2024).
# Molecular target: SARS-COV-2 RBD (SARS-COV-2, UniProt P0DTC2 319-539)
# Assay: ELISA, RBD coated on plate
row,Binder,EC50 [ng/mL]
1,"C566 (antibody, V domains shown) VH: QVQLQESGPGLVKSSQTLSLNCSVFGASISSGGYYWTWIRQHPGKGLEWIGYIHYRGTYYNPSLKSRVTMSVDTSKNQFSLKVRSVSAADTAIYYCARAIVVVTLNWFDLWGQGTLVTVSS VL: NFMLTQPHSVSESPGKTVTISCSGSGGSIASNYVQWYQQRPGSAPTAVIYEDNQRPSGVPDRFSGSIDSSSNSASLTISGLKTEDEADYYCQSYDTSNPVIFGGGTKLTV",5.88
2,"C580 (antibody, V domains shown) VH: EVQLVQSGAEVKKAGESLKISCNSSGYSFTNYWIAWVRQVPGKGLEWMGIIYLGDSDTRYSPSFQGRVTISADKSISAAYLHWSSLKASDTAIYYCARGGPPGGVKLELTDFWGQGTLVTVSS VL: not shown",1.81
3,"C573 (antibody, V domains shown) VH: QVQLQESGPGLVKPSGTLSLTCAVSGGSISTVNWWSWVRQPPGKGLEWIGEIHHSGNTNHNPSLRSRVTISVDKSKNQFSLKLRSVTAADTAVYYCARDGGRPGDAFDLWGQGTMVTVSS VL: QSALTQPASVSGSPGQSITISCTGTSSDVGGYNYVSWYQQHPGKVPKVMIYDVSNRPSGISNRFSGSKSGNTASLTISGLQAEDEADYYCNSYRSNSTRVFGTGTKVTV",2.2
4,"C572 (antibody, V domains shown) VH: EVQLVESGGGLIKPGRSLRLSCTASGFTFGDYAMTWFRQAPGKGLEWVGFIRSKAYGGTTGYAASVKYRFTISRDDSKSIAYLQMDSLKTEDTAVYYCTRWDGWSQHDYWGQGTLVTVSS VL: DIVMTQSPLSLSVTPGEPASISCRSSQSLLHSNGNNYFDWYLQKPGQSPQLLIYLASNRASGVPDRFSGSGSGTDFTLKISRVEAEDVGVYYCMQVLQIPYTFGQGTKLEI",2.9
5,"C570 (antibody, V domains shown) VH: QVQLQESGPGLVKPSETLSLTCTVSGASISSYYWSWIRQPPGKGLEWIGYIYYSGSTNYNPSLKSRVTISLDTSKNQFSLQLSSVTAADTAVYYCATYYFDNSGYSYGLDVWGQGTTVTVSS VL: DIQMTQSPSSLSASVGDRVTIACRASQSISSYLHWYQQQPGKAPKLLIYAVTNLQSGVPSRFSGSGSGTDFTLTISSLQPEDFATYYCQQSYSLPQTFGQGTKVEIK",0.74

# Molecular target: SARS-CoV-2 receptor-binding domain (WT RBD; S protein residues 319-539) (SARS-CoV-2, UniProt P0DTC2 319-539)
# Assay: BLI (Octet Red), IgG on protein A biosensor, WT RBD in solution, 1:1 fit
row,Binder,Kd [nM]
1,"C044 (antibody, V domains shown) VH: EVQLVESGGGLVQPGGSLRLSCAASGFTFSSYSMNWVRQAPGKGLEWVSYISSSSSTIYYADSVKGRFTISRDNAKNSLYLQMNSLRDEDTAVYYCAREAHDGALTDYGDYLNWFDPWGQGTLVTVSS VL: SYELTQPPSVSVAPGKTARITCGGNNIGSKSVHWYQQKPGQAPVLVIYYDSDRPSGIPERFSGSNSGNTATLTISRVEAGDEADYYCQVWDSSSDHLYWVFGGGTKLTVL",189
